# Measurements as given in the RNAGym collection of RNA variant scans (doi:10.1073/pnas.2313332121).
# Variants at the floor of the assay were thinned out.
# B1: TPR 5TU (parent)
# chain: GGAUCUUCUCGAUCUAACAAAAAAGACAAAUCUGCCACAAAGCUUGAGAGCAUCUUCGGAUGCAGAGGCGGCAGCCUUCGGUGGCGCGAUAGCGCCAACGUUCUCAACUAUGACACGCAAAACGCGUGCUCCGUUGAAUGGAGUUUAUCAUG
# Variants of: B1
# Experiment: polymerase ribozyme fitness, log enrichment relative to wild type (log ratio); higher = more active; in vitro selection for triplet polymerase activity
# Method in brief: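 After PCR construction and transcription, each subunit's mutant library from a heterodimeric triplet polymerase ribozyme was annealed with a biotinylated primer, the partner subunit and triplets. Incubation was frozen, at −7 °C, and extended constructs were gel-excised, bound to streptavidin beads and amplified by RT-PCR, in one selection round done in triplicate. Fitness is the logarithm of a genotype's enrichment divided by that of the wild type, from inverse-variance-weighted replicate averages of Illumina-sequenced inputs and outputs. The base of the logarithm is 2, and genotypes needed ≥10 input reads and ≥1 read per output.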
row,Variant,polymerase ribozyme fitness (log ratio)
1,G50C C63G G94C C103A C132U,-4.08
2,C51G U56A A106U,≤ -4.2
3,G50A G59U G71U A73C C95A C108G,≤ -4.2
4,G50U C54G A150U,-2.15
5,G50U A66U C69G U135C,≤ -4.2
6,G50U G83C,-0.813
7,G50U G83A,-0.347
8,G50C C87U A150C U151A,≤ -4.2
9,G50U G67U C85G C103U G140A A147G,≤ -4.2
10,G50C A64C G80A A120C G128U,≤ -4.2
11,C51A C85A U134C,-2.88
12,G50C G59A,-3.03
13,C51G G80U G94U,≤ -4.2
14,G50A G84A U101C G117C U146G,-0.884
15,C51G G83U A110C G140C,≤ -4.2
16,C51G U56A A97U C123U,-3
17,G50A C96U,-1.47
18,C51G C125U G141U,-3.54
19,G50U U104G G143U,-3.47
20,C51A C85U A89G U146A,-3.11
21,C51A C85U,-1.01

row,Variant,polymerase ribozyme fitness (log ratio)
1,C51A C99G,-4.07
2,G50C G58U,-1.88
3,G50U C87U G136U,-2.29
4,G50U C69U C99U,-3.41
5,G50C C129U,-3.94
6,G50C U55G C63A C76G A91G C125G U145C,≤ -4.2
7,C51A U55A A60C G74A G81A U90G C95A,≤ -4.2
8,C51G C87A C93G C105A A113U,≤ -4.2
9,G50C C125A,-2.76
10,G50C C125U,-3.89
11,C51A C85A G141A,-1.93
12,G50U C96G,-0.544
13,G50U G58U G59U C76A,≤ -4.2
14,C51A G58A G74C C96U A107C,≤ -4.2
15,C51A G74A C85A C114A,≤ -4.2
16,G50C C103A C149U,≤ -4.2
17,G50C C54U C85U C125U,-4.17
18,G50C C87U,-3.6
19,G50U U144G U145A,0.245
20,C51U A52U G74C A113C C131A,≤ -4.2
21,G50U A52C A64C G92C,≤ -4.2

row,Variant,polymerase ribozyme fitness (log ratio)
1,G50U C95G,-0.905
2,G50U U102G,-2.92
3,G50U U102A,-0.888
4,G50U C85A U144A U145C,-1.01
5,C51G A91G,≤ -4.2
6,C51G A91U,≤ -4.2
7,G50U C57U A73U G86U G126U,≤ -4.2
8,G50A U134A,-3.21
9,G50C C93U U104G G136U G141A,≤ -4.2
10,G50C G59C G83A,-3.91
11,G50A G68C U77C U82G G92C,≤ -4.2
12,G50A G94U C116G,-1.85
13,C51U A52G,-1.18
14,G50U C87U C96A,-1.48
15,G50C C96A,-3.01
16,G50C C57U G59C C99G,≤ -4.2
17,G50C A142U,-3.9
18,G50U A73U C87U,-2.26
19,G50U C51U G58U C108G C123G,≤ -4.2
20,C51A C95U C118U U135A,-2.41
21,C51G U56G C93U,-3.95

row,Variant,polymerase ribozyme fitness (log ratio)
1,C51A C75U C95U A106C G128U,≤ -4.2
2,C51A C75U,-2.27
3,G50U C95A U109C,≤ -4.2
4,G50C C95U,-3.47
5,G50U A122G,-0.236
6,G50C C93U,-4.15
7,G50C C93A,≤ -4.2
8,G50U A106G,0.264
9,G50C A119U,-3.92
10,G50U A52G,-0.0259
11,C51G G84A C95G A119G,-2.85
12,G50U G94A A113G A147C,-3.89
13,G50A G58C,-1.06
14,G50U A64G C103G C125A A142G,≤ -4.2
15,G50C U56A A73G C125A,-4.1
16,G50C U56A U78A G83A G94U C95A,≤ -4.2
17,C51G U56A A89U A119C C129U,≤ -4.2
18,G50C U55A,-3.29
19,C51A G58C,-2.22
20,C51G G84U,-3.11
